# Laboratory results from publication PMC10279719 (Nature Communications, 2023).
# T1: PEAK1^IDR1 (residues 1082-1746), from insect cells, phosphorylated by Src (human, UniProt Q9H792 1082-1746, phosphotyrosine at Y1107 (by Src in vitro, shown by MS/MS); other Src sites not stated; biotin (EZ-Link NHS-PEG4-Biotin, 1:1 molar ratio))
# T1 construct: human PEAK1, UniProt Q9H792, residues 1082-1746; also called PEAK1-IDR1 (+ Src phosphorylation); source: Sf21 insect cells, purified; phosphorylated in vitro with recombinant Src kinase domain
# T1 sequence (looked up): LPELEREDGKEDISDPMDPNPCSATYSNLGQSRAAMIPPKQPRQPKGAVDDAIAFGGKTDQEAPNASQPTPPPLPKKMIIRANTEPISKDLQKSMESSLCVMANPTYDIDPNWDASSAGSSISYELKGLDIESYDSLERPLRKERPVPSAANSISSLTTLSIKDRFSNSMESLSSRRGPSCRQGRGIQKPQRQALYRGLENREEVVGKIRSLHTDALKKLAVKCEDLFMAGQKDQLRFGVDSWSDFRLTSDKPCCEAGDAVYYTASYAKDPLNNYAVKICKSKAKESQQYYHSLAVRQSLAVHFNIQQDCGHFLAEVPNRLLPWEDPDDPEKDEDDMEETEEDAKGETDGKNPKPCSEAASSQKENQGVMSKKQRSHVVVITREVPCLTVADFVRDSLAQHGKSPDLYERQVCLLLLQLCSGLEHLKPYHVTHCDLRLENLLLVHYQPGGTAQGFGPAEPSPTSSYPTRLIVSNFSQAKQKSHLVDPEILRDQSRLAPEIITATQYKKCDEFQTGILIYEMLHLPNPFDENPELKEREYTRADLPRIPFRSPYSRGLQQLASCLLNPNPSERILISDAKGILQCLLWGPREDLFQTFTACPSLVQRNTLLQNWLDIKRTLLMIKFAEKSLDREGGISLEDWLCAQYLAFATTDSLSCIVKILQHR
# T2: full length PEAK3 (PEAK3^FL, residues 1-473), from insect cells (human, UniProt Q6ZS72 1-473, phosphoserine at S69; biotin (EZ-Link NHS-PEG4-Biotin, 1:1 molar ratio))
# T2 construct: Immobilised as the complex with insect cell 14-3-3ε,ζ
# T2 sequence (looked up): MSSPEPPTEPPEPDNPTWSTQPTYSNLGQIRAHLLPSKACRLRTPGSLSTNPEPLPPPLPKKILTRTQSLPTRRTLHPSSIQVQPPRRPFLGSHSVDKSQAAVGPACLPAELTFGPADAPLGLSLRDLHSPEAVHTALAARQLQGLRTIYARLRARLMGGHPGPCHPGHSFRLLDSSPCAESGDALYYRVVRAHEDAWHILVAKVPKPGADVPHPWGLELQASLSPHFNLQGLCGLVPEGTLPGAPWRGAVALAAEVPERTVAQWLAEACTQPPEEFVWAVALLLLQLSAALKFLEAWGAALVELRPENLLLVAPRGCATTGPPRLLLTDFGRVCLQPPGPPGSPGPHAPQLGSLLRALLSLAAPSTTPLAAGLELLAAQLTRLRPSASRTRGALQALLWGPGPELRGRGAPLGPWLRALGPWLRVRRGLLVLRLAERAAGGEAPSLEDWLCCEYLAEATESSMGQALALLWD
# T3: full length PEAK3 (PEAK3^FL, residues 1-473), from E. coli, phosphorylated by Src (human, UniProt Q6ZS72 1-473, phosphorylated with Src kinase (Y24 is the site shown for PEAK3^FL by MS/MS); other Src sites not stated; biotin (EZ-Link NHS-PEG4-Biotin, 1:1 molar ratio))
# T3 construct: also called PEAK3-FL E.coli (+ Src phosphorylation); source: E. coli C41 (DE3), purified; phosphorylated in vitro with recombinant Src kinase domain
# T3 sequence (looked up): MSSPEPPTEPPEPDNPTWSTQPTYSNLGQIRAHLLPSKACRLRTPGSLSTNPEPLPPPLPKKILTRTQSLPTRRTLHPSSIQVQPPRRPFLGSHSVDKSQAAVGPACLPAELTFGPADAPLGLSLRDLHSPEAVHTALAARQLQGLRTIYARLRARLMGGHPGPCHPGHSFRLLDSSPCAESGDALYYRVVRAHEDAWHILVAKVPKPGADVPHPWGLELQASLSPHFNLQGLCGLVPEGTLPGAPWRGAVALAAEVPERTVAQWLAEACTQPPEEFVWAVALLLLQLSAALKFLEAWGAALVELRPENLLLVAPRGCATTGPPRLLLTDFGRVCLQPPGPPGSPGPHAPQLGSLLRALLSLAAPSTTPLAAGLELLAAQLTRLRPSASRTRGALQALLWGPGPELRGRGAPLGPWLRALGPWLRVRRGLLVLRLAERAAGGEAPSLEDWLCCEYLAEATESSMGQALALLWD
# T4: full length PEAK3 (PEAK3^FL, residues 1-473), from E. coli (human, UniProt Q6ZS72 1-473, biotin (EZ-Link NHS-PEG4-Biotin, 1:1 molar ratio))
# T4 construct: also called PEAK3-FL E.coli; source: E. coli C41 (DE3), purified (two-step purification)
# T4 sequence (looked up): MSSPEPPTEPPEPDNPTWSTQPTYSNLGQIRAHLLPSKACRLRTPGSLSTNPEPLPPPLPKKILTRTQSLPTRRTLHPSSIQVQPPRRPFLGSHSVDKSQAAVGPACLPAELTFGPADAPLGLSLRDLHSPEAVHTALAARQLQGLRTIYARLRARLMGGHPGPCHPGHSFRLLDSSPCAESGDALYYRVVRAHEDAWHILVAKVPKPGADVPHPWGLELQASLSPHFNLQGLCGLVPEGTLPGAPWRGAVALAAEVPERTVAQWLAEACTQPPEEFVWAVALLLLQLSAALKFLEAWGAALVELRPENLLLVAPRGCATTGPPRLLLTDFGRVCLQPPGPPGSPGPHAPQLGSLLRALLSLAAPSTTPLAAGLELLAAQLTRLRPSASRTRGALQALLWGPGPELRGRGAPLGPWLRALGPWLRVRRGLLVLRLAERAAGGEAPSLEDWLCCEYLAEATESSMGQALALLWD
# T5: full length PEAK3 (PEAK3^FL, residues 1-473), from insect cells, phosphorylated by Src (human, UniProt Q6ZS72 1-473, phosphoserine at S69; phosphotyrosine at Y24 (by Src in vitro, shown by MS/MS); other Src sites not stated; biotin (EZ-Link NHS-PEG4-Biotin, 1:1 molar ratio))
# T5 construct: As Sm27, with Src phosphorylation before immobilisation; also called PEAK3-FL (+ Src phosphorylation); source: Sf21 insect cells, purified as a complex with insect 14-3-3ε,ζ; phosphorylated in vitro with recombinant Src kinase domain
# T5 sequence (looked up): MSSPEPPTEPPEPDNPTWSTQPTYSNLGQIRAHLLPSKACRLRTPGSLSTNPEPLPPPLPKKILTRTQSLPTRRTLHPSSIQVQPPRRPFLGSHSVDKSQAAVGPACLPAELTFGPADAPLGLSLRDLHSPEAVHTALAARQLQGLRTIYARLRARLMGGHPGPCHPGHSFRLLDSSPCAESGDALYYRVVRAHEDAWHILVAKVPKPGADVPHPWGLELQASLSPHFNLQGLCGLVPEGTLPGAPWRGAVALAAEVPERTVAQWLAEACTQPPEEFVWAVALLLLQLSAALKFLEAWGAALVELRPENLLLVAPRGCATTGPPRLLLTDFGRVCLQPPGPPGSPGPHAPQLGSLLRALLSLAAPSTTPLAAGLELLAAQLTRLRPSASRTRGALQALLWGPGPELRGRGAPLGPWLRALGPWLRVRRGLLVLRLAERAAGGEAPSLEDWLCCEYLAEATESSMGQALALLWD
# T6: PEAK1^IDR1 (residues 1082-1746), from insect cells (human, UniProt Q9H792 1082-1746, biotin (EZ-Link NHS-PEG4-Biotin, 1:1 molar ratio))
# T6 construct: human PEAK1, UniProt Q9H792, residues 1082-1746; Purifies as a homodimer; Phosphorylation at the tandem 14-3-3 motif was not observed
# T6 sequence (looked up): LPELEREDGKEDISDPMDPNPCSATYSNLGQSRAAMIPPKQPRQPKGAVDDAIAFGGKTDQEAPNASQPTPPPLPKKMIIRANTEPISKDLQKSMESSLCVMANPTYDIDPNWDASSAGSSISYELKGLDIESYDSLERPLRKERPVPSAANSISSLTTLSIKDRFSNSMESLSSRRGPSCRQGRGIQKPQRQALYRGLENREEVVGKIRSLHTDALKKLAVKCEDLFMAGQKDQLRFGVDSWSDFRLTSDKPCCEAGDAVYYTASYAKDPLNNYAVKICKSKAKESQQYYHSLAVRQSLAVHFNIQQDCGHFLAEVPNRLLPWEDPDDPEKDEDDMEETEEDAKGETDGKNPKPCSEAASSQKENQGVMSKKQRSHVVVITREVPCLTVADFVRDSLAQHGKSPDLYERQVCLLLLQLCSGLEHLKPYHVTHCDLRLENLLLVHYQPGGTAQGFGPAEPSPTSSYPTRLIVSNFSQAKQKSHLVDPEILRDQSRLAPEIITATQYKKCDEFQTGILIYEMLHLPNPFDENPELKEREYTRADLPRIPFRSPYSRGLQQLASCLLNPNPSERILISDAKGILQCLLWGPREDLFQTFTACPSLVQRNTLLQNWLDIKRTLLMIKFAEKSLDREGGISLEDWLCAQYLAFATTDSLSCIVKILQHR
# Tests used:
# Assay in all cases: SPR; biotinylated PEAK proteins (with or without Src phosphorylation) captured with a biotin CAPture kit, CrkII NSH3 as analyte; Biacore 8K+, 20 °C, HBS-TP (150 mM NaCl); 1 M NaCl regeneration; steady state
# Conditions in all cases: both partners purified
# [1] = target: T1, PEAK1^IDR1 (residues 1082-1746), from …
# [2] = target: T2, full length PEAK3 (PEAK3^FL, residues …)
# [3] = target: T3, full length PEAK3 (PEAK3^FL, residues …)
# [4] = target: T4, full length PEAK3 (PEAK3^FL, residues …)
# [5] = target: T5, full length PEAK3 (PEAK3^FL, residues …)
# [6] = target: T6, PEAK1^IDR1 (residues 1082-1746), from …
binder,measurement,setting,value
"CrkII N-terminal SH3 domain (CrkII^NSH3, residues 134-191) (domain or fragment, human, UniProt P46108-1 134-191, looked up, human CrkII NSH3 domain, UniProt P46108-1, residues 134-191; Amine coupled to a CM5 chip in a2; analyte in a4; in the syringe in ITC) AEYVRALFDFNGNDEEDLPFKKGDILRIRDKPEEQWWNAEDSEGKRGMIPVPYVEKYR",Kd,[1],4.11 µM
same,Kd,[2],3.87 µM
same,Kd,[3],13.1 µM
same,Kd,[4],9.6 µM
same,Kd,[5],6.84 µM
same,Kd,[6],3.7 µM
